Numbered stars: 1 amine (or outer) side, 2 acyl side, 3 side chain; on linkers, the order of the positions; unused ones are H or OH. Square brackets hold non-standard residues; d marks the D form. Side chains are listed from the residue outwards. Ends that are not written are not given here. * marks the point of attachment. C18 diacid = O=C(O)CCCCCCCCCCCCCCCCC(=O)*; C16 diacid = O=C(O)CCCCCCCCCCCCCCC(=O)*; γGlu = O=C(O)[C@H](CCC(=O)[*:2])N[*:1]; Met(O2) = CS(=O)(=O)CC[C@H](N)C(=O)O; αMeD = C[C@](N)(CC(=O)O)C(=O)O; αMeS = C[C@](N)(CO)C(=O)O; AEEA = NCCOCCOCC(=O)O; Aib = CC(C)(N)C(=O)O
Assays:
[1] = molecular target: human Glucagon receptor (GCGR) (human, UniProt P47871 26-477); test: cell-based or functional assay
Chain of human Glucagon receptor (GCGR) (P47871 26-477): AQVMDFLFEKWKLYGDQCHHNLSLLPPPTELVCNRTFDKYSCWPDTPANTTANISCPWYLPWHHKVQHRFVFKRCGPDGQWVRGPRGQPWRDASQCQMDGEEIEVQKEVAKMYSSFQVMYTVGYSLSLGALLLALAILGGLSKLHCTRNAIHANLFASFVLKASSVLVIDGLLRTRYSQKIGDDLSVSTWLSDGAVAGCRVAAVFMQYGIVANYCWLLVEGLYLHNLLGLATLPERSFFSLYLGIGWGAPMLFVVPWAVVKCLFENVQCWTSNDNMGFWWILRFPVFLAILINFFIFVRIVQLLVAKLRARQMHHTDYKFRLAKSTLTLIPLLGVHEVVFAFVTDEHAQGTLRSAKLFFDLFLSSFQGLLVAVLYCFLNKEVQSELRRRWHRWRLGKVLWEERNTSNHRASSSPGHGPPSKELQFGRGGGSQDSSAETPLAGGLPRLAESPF

[2] = molecular target: human GLP-1 receptor (GLP1R) (human, UniProt P43220 24-463); test: cell-based or functional assay

Binder	GCGR EC50 human [1] [nM]	GLP1R EC50 human [2] [nM]
H[Aib]QGTFTSDYSKYLDERAAK([AEEA-AEEA-γGlu-C18 diacid])DFVQWL[Met(O2)][αMeD]T-NH2 (N-terminus assumed; SMILES CC(C)C[C@H](NC(=O)[C@H](Cc1ccc(O)cc1)NC(=O)[C@H](CCCCN)NC(=O)[C@H](CO)NC(=O)[C@H](Cc1ccc(O)cc1)NC(=O)[C@H](CC(=O)O)NC(=O)[C@H](CO)NC(=O)[C@@H](NC(=O)[C@H](Cc1ccccc1)NC(=O)[C@@H](NC(=O)CNC(=O)[C@H](CCC(N)=O)NC(=O)C(C)(C)NC(=O)[C@@H](N)Cc1c[nH]cn1)[C@@H](C)O)[C@@H](C)O)C(=O)N[C@@H](CC(=O)O)C(=O)N[C@@H](CCC(=O)O)C(=O)N[C@@H](CCCNC(=N)N)C(=O)N[C@@H](C)C(=O)N[C@@H](C)C(=O)N[C@@H](CCCCNC(=O)COCCOCCNC(=O)COCCOCCNC(=O)CC[C@H](NC(=O)CCCCCCCCCCCCCCCCC(=O)O)C(=O)O)C(=O)N[C@@H](CC(=O)O)C(=O)N[C@@H](Cc1ccccc1)C(=O)N[C@H](C(=O)N[C@@H](CCC(N)=O)C(=O)N[C@@H](Cc1c[nH]c2ccccc12)C(=O)N[C@@H](CC(C)C)C(=O)N[C@@H](CCS(C)(=O)=O)C(=O)N[C@@](C)(CC(=O)O)C(=O)N[C@H](C(N)=O)[C@@H](C)O)C(C)C) [TP613]	> 5	3.34
H[αMeS]QGTFTSDYSKYLDARAAK([AEEA-AEEA-γGlu-C16 diacid])DFVQWL[Met(O2)][αMeD]T-NH2 (N-terminus assumed; SMILES CC(C)C[C@H](NC(=O)[C@H](Cc1ccc(O)cc1)NC(=O)[C@H](CCCCN)NC(=O)[C@H](CO)NC(=O)[C@H](Cc1ccc(O)cc1)NC(=O)[C@H](CC(=O)O)NC(=O)[C@H](CO)NC(=O)[C@@H](NC(=O)[C@H](Cc1ccccc1)NC(=O)[C@@H](NC(=O)CNC(=O)[C@H](CCC(N)=O)NC(=O)[C@](C)(CO)NC(=O)[C@@H](N)Cc1c[nH]cn1)[C@@H](C)O)[C@@H](C)O)C(=O)N[C@@H](CC(=O)O)C(=O)N[C@@H](C)C(=O)N[C@@H](CCCNC(=N)N)C(=O)N[C@@H](C)C(=O)N[C@@H](C)C(=O)N[C@@H](CCCCNC(=O)COCCOCCNC(=O)COCCOCCNC(=O)CC[C@H](NC(=O)CCCCCCCCCCCCCCC(=O)O)C(=O)O)C(=O)N[C@@H](CC(=O)O)C(=O)N[C@@H](Cc1ccccc1)C(=O)N[C@H](C(=O)N[C@@H](CCC(N)=O)C(=O)N[C@@H](Cc1c[nH]c2ccccc12)C(=O)N[C@@H](CC(C)C)C(=O)N[C@@H](CCS(C)(=O)=O)C(=O)N[C@@](C)(CC(=O)O)C(=O)N[C@H](C(N)=O)[C@@H](C)O)C(C)C) [TP614]	0.86	1.4
H[αMeS]QGTFTSDYSKYLDARAAQK([AEEA-AEEA-γGlu-C16 diacid])FVQWL[Met(O2)][αMeD]T-NH2 (N-terminus assumed; SMILES CC(C)C[C@H](NC(=O)[C@H](Cc1ccc(O)cc1)NC(=O)[C@H](CCCCN)NC(=O)[C@H](CO)NC(=O)[C@H](Cc1ccc(O)cc1)NC(=O)[C@H](CC(=O)O)NC(=O)[C@H](CO)NC(=O)[C@@H](NC(=O)[C@H](Cc1ccccc1)NC(=O)[C@@H](NC(=O)CNC(=O)[C@H](CCC(N)=O)NC(=O)[C@](C)(CO)NC(=O)[C@@H](N)Cc1c[nH]cn1)[C@@H](C)O)[C@@H](C)O)C(=O)N[C@@H](CC(=O)O)C(=O)N[C@@H](C)C(=O)N[C@@H](CCCNC(=N)N)C(=O)N[C@@H](C)C(=O)N[C@@H](C)C(=O)N[C@@H](CCC(N)=O)C(=O)N[C@@H](CCCCNC(=O)COCCOCCNC(=O)COCCOCCNC(=O)CC[C@H](NC(=O)CCCCCCCCCCCCCCC(=O)O)C(=O)O)C(=O)N[C@@H](Cc1ccccc1)C(=O)N[C@H](C(=O)N[C@@H](CCC(N)=O)C(=O)N[C@@H](Cc1c[nH]c2ccccc12)C(=O)N[C@@H](CC(C)C)C(=O)N[C@@H](CCS(C)(=O)=O)C(=O)N[C@@](C)(CC(=O)O)C(=O)N[C@H](C(N)=O)[C@@H](C)O)C(C)C) [TP615]	0.26	0.4
H[αMeS]QGTFTSDYSKYLDARAAK([AEEA-AEEA-γGlu-C18 diacid])DFVQWL[Met(O2)][αMeD]T-NH2 (N-terminus assumed; SMILES CC(C)C[C@H](NC(=O)[C@H](Cc1ccc(O)cc1)NC(=O)[C@H](CCCCN)NC(=O)[C@H](CO)NC(=O)[C@H](Cc1ccc(O)cc1)NC(=O)[C@H](CC(=O)O)NC(=O)[C@H](CO)NC(=O)[C@@H](NC(=O)[C@H](Cc1ccccc1)NC(=O)[C@@H](NC(=O)CNC(=O)[C@H](CCC(N)=O)NC(=O)[C@](C)(CO)NC(=O)[C@@H](N)Cc1c[nH]cn1)[C@@H](C)O)[C@@H](C)O)C(=O)N[C@@H](CC(=O)O)C(=O)N[C@@H](C)C(=O)N[C@@H](CCCNC(=N)N)C(=O)N[C@@H](C)C(=O)N[C@@H](C)C(=O)N[C@@H](CCCCNC(=O)COCCOCCNC(=O)COCCOCCNC(=O)CC[C@H](NC(=O)CCCCCCCCCCCCCCCCC(=O)O)C(=O)O)C(=O)N[C@@H](CC(=O)O)C(=O)N[C@@H](Cc1ccccc1)C(=O)N[C@H](C(=O)N[C@@H](CCC(N)=O)C(=O)N[C@@H](Cc1c[nH]c2ccccc12)C(=O)N[C@@H](CC(C)C)C(=O)N[C@@H](CCS(C)(=O)=O)C(=O)N[C@@](C)(CC(=O)O)C(=O)N[C@H](C(N)=O)[C@@H](C)O)C(C)C) [TP616]	1.39	1.96
H[αMeS]QGTFTSDYSKYLDARAAQK([AEEA-AEEA-γGlu-C18 diacid])FVQWL[Met(O2)][αMeD]T-NH2 (N-terminus assumed; SMILES CC(C)C[C@H](NC(=O)[C@H](Cc1ccc(O)cc1)NC(=O)[C@H](CCCCN)NC(=O)[C@H](CO)NC(=O)[C@H](Cc1ccc(O)cc1)NC(=O)[C@H](CC(=O)O)NC(=O)[C@H](CO)NC(=O)[C@@H](NC(=O)[C@H](Cc1ccccc1)NC(=O)[C@@H](NC(=O)CNC(=O)[C@H](CCC(N)=O)NC(=O)[C@](C)(CO)NC(=O)[C@@H](N)Cc1c[nH]cn1)[C@@H](C)O)[C@@H](C)O)C(=O)N[C@@H](CC(=O)O)C(=O)N[C@@H](C)C(=O)N[C@@H](CCCNC(=N)N)C(=O)N[C@@H](C)C(=O)N[C@@H](C)C(=O)N[C@@H](CCC(N)=O)C(=O)N[C@@H](CCCCNC(=O)COCCOCCNC(=O)COCCOCCNC(=O)CC[C@H](NC(=O)CCCCCCCCCCCCCCCCC(=O)O)C(=O)O)C(=O)N[C@@H](Cc1ccccc1)C(=O)N[C@H](C(=O)N[C@@H](CCC(N)=O)C(=O)N[C@@H](Cc1c[nH]c2ccccc12)C(=O)N[C@@H](CC(C)C)C(=O)N[C@@H](CCS(C)(=O)=O)C(=O)N[C@@](C)(CC(=O)O)C(=O)N[C@H](C(N)=O)[C@@H](C)O)C(C)C) [TP617]	0.56	0.76

— patent publication US20200270325A1 (Merck Sharp & Dohme, published 2020)
